Measured values as given in the Immune Epitope Database (IEDB).

Key:
HLA-A*68:02 [1] = assay: IEDB peptide-MHC binding, purified MHC/competitive/fluorescence; filed as Kd, often an IC50 or EC50 that approximates it; ≥ and ≤ were set here for values at or beyond the usual limits of such assays; details: source organism: Entamoeba histolytica HM-1:IMSS
HLA-C*06:02 = assay: IEDB peptide-MHC binding, purified MHC/direct/fluorescence; filed as Kd, often an IC50 or EC50 that approximates it; ≥ and ≤ were set here for values at or beyond the usual limits of such assays
HLA-A*01:01 = assay: IEDB peptide-MHC binding, purified MHC/competitive/fluorescence; filed as Kd, often an IC50 or EC50 that approximates it; ≥ and ≤ were set here for values at or beyond the usual limits of such assays
HLA-B*15:01 [2] = assay: as above
HLA-B*35:01 = assay: as above
HLA-A*26:01 = assay: as above
HLA-B*39:01 = assay: as above
HLA-B*51:01 = assay: as above
HLA-C*05:01 = assay: IEDB peptide-MHC binding, purified MHC/direct/fluorescence; filed as Kd, often an IC50 or EC50 that approximates it; ≥ and ≤ were set here for values at or beyond the usual limits of such assays
HLA-C*12:03 = assay: as above
HLA-C*03:03 = assay: as above
HLA-A*02:01 = assay: IEDB peptide-MHC binding, purified MHC/competitive/fluorescence; filed as Kd, often an IC50 or EC50 that approximates it; ≥ and ≤ were set here for values at or beyond the usual limits of such assays
HLA-B*15:42 = assay: as above
HLA-B*45:06 = assay: as above
HLA-B*83:01 = assay: as above
HLA-B*18:01 = assay: as above
HLA-A*69:01 = assay: as above
HLA-B*27:03 = assay: as above
HLA-B*46:01 = assay: as above
HLA-B*58:01 = assay: as above
HLA-A*02:19 = assay: IEDB peptide-MHC binding, purified MHC/direct/fluorescence; filed as Kd, often an IC50 or EC50 that approximates it; ≥ and ≤ were set here for values at or beyond the usual limits of such assays
HLA-A*02:03 = assay: as above
HLA-A*02:12 = assay: as above
HLA-A*03:01 = assay: as above
HLA-A*02:11 = assay: as above
HLA-A*02:16 = assay: as above
HLA-A*29:02 = assay: as above; details: source organism: Maciel virus
HLA-A*24:02 = assay: IEDB peptide-MHC binding, purified MHC/competitive/fluorescence; ≥ and ≤ were set here for values at or beyond the usual limits of such assays; details: source organism: Zaire ebolavirus
HLA-A*68:23 = assay: IEDB peptide-MHC binding, purified MHC/competitive/fluorescence; filed as Kd, often an IC50 or EC50 that approximates it; ≥ and ≤ were set here for values at or beyond the usual limits of such assays; details: source organism: Zaire ebolavirus
HLA-A*32:15 = assay: as above; details: source organism: Zaire ebolavirus
HLA-A*32:07 = assay: as above; details: source organism: Zaire ebolavirus
HLA-A*68:02 [3] = assay: IEDB peptide-MHC binding, purified MHC/direct/fluorescence; filed as Kd, often an IC50 or EC50 that approximates it; ≥ and ≤ were set here for values at or beyond the usual limits of such assays; details: source organism: Zaire ebolavirus
HLA-B*15:01 [4] = assay: as above; details: source organism: Zaire ebolavirus
[5] = source organism: Escherichia coli O139:H28 str. E24377A
[6] = source organism: Yersinia pestis Nepal516
[7] = source organism: Salmonella enterica subsp. enterica serovar Typhi
[8] = source organism: Salmonella enterica subsp. enterica serovar Typhi str. CT18
[9] = source organism: Lechiguanas virus
[10] = source organism: Zaire ebolavirus

CAMFWYHYI
Kd (HLA-A*68:02 [1]): 7.2 nM | Kd (HLA-C*06:02; source organism: Entamoeba histolytica HM-1:IMSS): 1260 nM

EIVAEYITY
Kd (HLA-A*01:01; [5]): ≥ 20000 nM | Kd (HLA-B*15:01 [2]; [5]): 156 nM | Kd (HLA-B*35:01; [5]): 6.6 nM | Kd (HLA-A*26:01; [5]): 41.6 nM

FASASSYAI
Kd (HLA-B*35:01; [6]): 0.4 nM | Kd (HLA-B*39:01; [6]): 7.4 nM | Kd (HLA-B*51:01; [6]): 3780 nM | Kd (HLA-C*05:01; [6]): 866 nM | Kd (HLA-C*12:03; [6]): 105 nM | Kd (HLA-C*03:03; [6]): ≤ 1 nM

FVVDTTPPL
Kd (HLA-B*35:01; [7]): ≤ 0.1 nM | Kd (HLA-B*39:01; [7]): 7 nM | Kd (HLA-A*02:01; [7]): 0.2 nM | Kd (HLA-B*15:42; [7]): ≥ 5000 nM | Kd (HLA-B*45:06; [7]): ≥ 5000 nM | Kd (HLA-B*83:01; [7]): ≥ 5000 nM | Kd (HLA-C*05:01; [8]): 1100 nM | Kd (HLA-C*12:03; [8]): 372 nM | Kd (HLA-C*03:03; [8]): 2 nM

HTQAIEGAW
Kd (HLA-B*15:01 [2]; [9]): ≥ 20000 nM | Kd (HLA-B*18:01; [9]): ≥ 20000 nM | Kd (HLA-A*69:01; [9]): ≥ 20000 nM | Kd (HLA-B*39:01; [9]): ≥ 20000 nM | Kd (HLA-B*27:03; [9]): ≥ 20000 nM | Kd (HLA-A*02:01; [9]): ≥ 20000 nM | Kd (HLA-B*46:01; [9]): ≥ 20000 nM | Kd (HLA-B*58:01; [9]): 1.3 nM | Kd (HLA-B*51:01; [9]): ≥ 20000 nM | Kd (HLA-A*26:01; [9]): ≥ 20000 nM | Kd (HLA-A*02:19; source organism: Maciel virus): ≥ 20000 nM | Kd (HLA-A*02:03; source organism: Maciel virus): ≥ 20000 nM | Kd (HLA-A*02:12; source organism: Maciel virus): ≥ 20000 nM | Kd (HLA-A*03:01; source organism: Maciel virus): ≥ 20000 nM | Kd (HLA-A*02:11; source organism: Maciel virus): ≥ 20000 nM | Kd (HLA-A*02:16; source organism: Maciel virus): ≥ 20000 nM | Kd (HLA-A*29:02): ≥ 20000 nM

IGILHLILW
Kd (HLA-B*58:01; source organism: Influenza A virus (A/Memphis/1/1978(H1N1))): 3270 nM

ITDWLNFTL
Kd (HLA-A*01:01; [7]): 977 nM | Kd (HLA-A*02:01; [7]): 2.2 nM | Kd (HLA-B*58:01; [7]): 123 nM | Kd (HLA-C*05:01; [8]): 213 nM

LAAEEILTL
Kd (HLA-B*15:01 [2]; [5]): ≥ 20000 nM | Kd (HLA-B*39:01; [5]): ≥ 20000 nM | Kd (HLA-A*02:01; [5]): 164 nM | Kd (HLA-B*58:01; [5]): 748 nM | Kd (HLA-C*12:03; [5]): 10 nM | Kd (HLA-C*03:03; [5]): ≤ 1 nM

TTIGEWAFW
IC50 (HLA-A*24:02): 113 nM | Kd (HLA-A*68:23): 1.6 nM | Kd (HLA-A*32:15): 26.9 nM | Kd (HLA-B*18:01; [10]): ≥ 20000 nM | Kd (HLA-A*69:01; [10]): ≥ 20000 nM | Kd (HLA-B*39:01; [10]): ≥ 20000 nM | Kd (HLA-B*27:03; [10]): ≥ 20000 nM | Kd (HLA-A*02:01; [10]): ≥ 20000 nM | Kd (HLA-B*46:01; [10]): ≥ 20000 nM | Kd (HLA-B*15:42; [10]): ≥ 5000 nM | Kd (HLA-B*58:01; [10]): 0.3 nM | Kd (HLA-B*45:06; [10]): ≥ 5000 nM | Kd (HLA-B*83:01; [10]): ≥ 5000 nM | Kd (HLA-A*32:07): 3.3 nM | Kd (HLA-A*26:01; [10]): ≥ 20000 nM | Kd (HLA-A*02:19; [10]): ≥ 20000 nM | Kd (HLA-A*68:02 [3]): ≥ 20000 nM | Kd (HLA-B*15:01 [4]): ≥ 20000 nM | Kd (HLA-A*02:03; [10]): ≥ 20000 nM | Kd (HLA-A*02:12; [10]): ≥ 20000 nM | Kd (HLA-A*03:01; [10]): ≥ 20000 nM | Kd (HLA-A*02:11; [10]): ≥ 20000 nM | Kd (HLA-A*02:16; [10]): ≥ 20000 nM

YARYVLQKL
Kd (HLA-C*06:02; source organism: human gammaherpesvirus 4): 874 nM
